Where two headings read alike, the source gives them in different places.
Legend:
Human CCR7 WT (human) [1] = target: Human CCR7 WT (human) (UniProt P32248)
Human CCR7 WT (human) [2] = target: Human CCR7 WT (human) (UniProt P32248); remark: listed apart in the source

Chain of UniProt P32248 (P32248 25-378): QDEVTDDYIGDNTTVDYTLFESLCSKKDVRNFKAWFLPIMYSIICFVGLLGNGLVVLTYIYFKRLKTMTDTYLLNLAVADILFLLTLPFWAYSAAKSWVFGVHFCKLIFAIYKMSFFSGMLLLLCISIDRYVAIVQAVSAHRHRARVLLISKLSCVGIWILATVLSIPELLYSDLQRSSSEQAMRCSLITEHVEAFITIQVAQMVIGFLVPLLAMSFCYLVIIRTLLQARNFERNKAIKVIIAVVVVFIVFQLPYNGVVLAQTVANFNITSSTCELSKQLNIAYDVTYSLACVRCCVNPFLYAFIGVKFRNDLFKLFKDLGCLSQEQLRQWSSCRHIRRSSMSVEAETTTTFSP

CCL19 K71A K73A R74A R75A (CCL19 AMAAA^71-75) (ligand)
increase in potency in Gαi signalling (BRET) with 10 μM long C21TP (CCL21 81-111) added (Human CCR7 WT (human) [1]): 3 fold | increase in potency in Gαi signalling (BRET) with 10 μM short C21TP (CCL21 89-106) added (Human CCR7 WT (human) [1]): 3.5 fold | potency in Gαi signalling (BRET), against WT CCL19 (Human CCR7 WT (human) [1]): 22 fold

CCL21 1-91 C80A (from UniProt O00585 24-114) (ligand)
increase in potency in Gαi signalling (BRET) with 10 μM long C21TP (CCL21 81-111) added (Human CCR7 WT (human) [2]): 19.7 fold | increase in potency in Gαi signalling (BRET) with 10 μM short C21TP (CCL21 89-106) added (Human CCR7 WT (human) [2]): 16.6 fold

— PMC8836243
